Measurements taken from the supplement of paper PMC10724198.
± gives the standard deviation of the averaged measurements.

System: Saccharomyces cerevisiae
Experiment: protein stability index of tFT-peptide fusion (C-terminal peptide) (PSI (0-1 scale)); higher = more stable (slower turnover)
Settings: genetic background: wild type; temperature: 30 C
Protocol: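 Multiplexed protein stability (MPS) profiling in S. cerevisiae. Random 12-aa peptides (tFT-X12 library) are fused to the C-terminus of a sfGFP-mCherry tandem fluorescent timer, after mCherry and a GGGS linker. Cells are FACS-sorted into 8 mCherry/sfGFP bins and deep-sequenced. The protein stability index (PSI) is the read-weighted bin average, scaled from 0 (unstable) to 1 (stable). Only peptides with >10 reads are reported; cells were grown at 30 °C in SC-His with glucose.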
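Further: PSI is a weighted mean of sequencing reads over stability bins, variants kept only with over 10 reads, mCherry proximal and sfGFP distal, peptide attached via GGGS linker.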

Sequence | protein stability index
GGVGGGAAEGAV | 0.758 ± 0.024
GGVGVGRGVCVF | 0.6187 ± 0.0012
GGVLLPGFSHLL | 0.7133 ± 0.0068
GGVRRSPRAILR | 0.705 ± 0.014
GGVSCYVHRRAR | 0.688 ± 0.06
GGVSGEGFSWVG | 0.66987 ± 0.0004
GGVVACGLRVAS | 0.62 ± 0.058
GGVVGGRAGRGG | 0.617 ± 0.033
GGVVGVEWGAVG | 0.626 ± 0.015
GGVVRGVWVGRG | 0.725 ± 0.028
GGVYVASQGTFV | 0.673 ± 0.021
GGWAGLGAPGVS | 0.697 ± 0.028
GGWCGGGGAWSG | 0.6985 ± 0.0027
GGWGGGCGACVV | 0.72 ± 0.073
GGWGGRSGTEGE | 0.686 ± 0.013
GGWGPGALEVGT | 0.6578 ± 0.0018
GHAPSSCPPPPR | 0.692 ± 0.062
GHCFCRLLPLHW | 0.755 ± 0.025
GHCVALGNRVLH | 0.665 ± 0.068
GHDWRNPRLVED | 0.645 ± 0.062
GHRAEGMWSGGL | 0.751 ± 0.098
GHRRLGNRWSVG | 0.671 ± 0.035
GIDKTNHKQEKN | 0.691 ± 0.0085
GIGFHSREIGER | 0.66 ± 0.055
GIGGNWAVSRNC | 0.73 ± 0.12

Sequence | protein stability index
GIGKADSKRERS | 0.652 ± 0.00097
GIKKKKKKQDKK | 0.728 ± 0.076
GIMPVRENCGVF | 0.6422 ± 0.0048
GIPYALVTPPFP | 0.7724 ± 0.0077
GIRKNIDNNEKI | 0.686 ± 0.03
GITSGRAVGGRA | 0.713 ± 0.011
GIVCGDADMEGG | 0.676 ± 0.051
GKALESLEGQFT | 0.728 ± 0.019
GKEGGRERVANE | 0.639 ± 0.091
GKFTGPLGARSR | 0.658 ± 0.032
GKKPNSGKNKKK | 0.694 ± 0.049
GKMLSRPRKTEN | 0.711 ± 0.03
GKNKSKKEKKEK | 0.668 ± 0.032
GKRETQVEEGAR | 0.765 ± 0.11
GKRYEKVGVEWW | 0.765 ± 0.12
GKTQLIKNIQNI | 0.568 ± 0.023
GKVCGRAEYPQT | 0.719 ± 0.035
GKYEALGRFSPG | 0.71 ± 0.015
GKYQQGFQKVTR | 0.668 ± 0.025
GLAAGGAVMPPL | 0.7188 ± 0.0064
GLAELKSYDGEG | 0.696 ± 0.034
GLAQRAIKNRHR | 0.679 ± 0.11
GLARSICRNYGL | 0.706 ± 0.014
GLASLTGVPRCW | 0.723 ± 0.027
GLCACTSFLVSW | 0.697 ± 0.028

Sequence | protein stability index
GLCAVWSGAGRC | 0.7 ± 0.037
GLCSEETPALFY | 0.7173 ± 0.0043
GLDDLMPGRVLW | 0.666 ± 0.015
GLDEGCRGGEEV | 0.673 ± 0.0092
GLDNNKCTEKKI | 0.665 ± 0.13
GLEPSGLSGGSW | 0.672 ± 0.041
GLGEWGGRGVCG | 0.692 ± 0.015
GLGGRGGAVGEW | 0.67252 ± 0.0004
GLGVMGVGCVGS | 0.653 ± 0.054
GLGVVSVWSGGL | 0.703 ± 0.044
GLLGVRVVAGLG | 0.625 ± 0.032
GLMSVRYSGTGV | 0.6743 ± 0.006
GLNTKAQSRIPM | 0.742 ± 0.018
GLPPLAMPALSI | 0.72 ± 0.057
GLPPLLSPVPLR | 0.646 ± 0.057
GLPSHPAPPSTN | 0.657 ± 0.11
GLPTFLTDSSFW | 0.725 ± 0.039
GLPWRRVGGGAG | 0.644 ± 0.013
GLRCSRVSFFFW | 0.64 ± 0.039
GLRRWLSTAMRR | 0.7339 ± 0.0033
GLSALVVCPSWG | 0.65062 ± 0.00034
GLSRYLTCNNLV | 0.674 ± 0.0075
GLSVSGLWGVFG | 0.629 ± 0.2
GLTGAATVPHSA | 0.732 ± 0.013
GLVRGGCGTVGG | 0.774 ± 0.18

Sequence | protein stability index
GLWCVGGGAVGV | 0.6818 ± 0.004
GLYTRLYIPRPC | 0.739 ± 0.033
GMRRGGGWCRGW | 0.674 ± 0.027
GMTYEKIKNVIE | 0.651 ± 0.025
GNAGGFRSLISW | 0.663 ± 0.065
GNGENKVIVRKS | 0.696 ± 0.045
GNGIRLIPPAYS | 0.725 ± 0.028
GNKMYRSREGNC | 0.6709 ± 0.003
GNTQSIEQALLV | 0.752 ± 0.028
GPFDVLPEPNPG | 0.6348 ± 0.0037
GPFRRLRCTAFI | 0.713 ± 0.059
GPGCDDDASGSV | 0.686 ± 0.013
GPGFRSGVELVW | 0.759 ± 0.069
GPGGTVDLIWGS | 0.703 ± 0.034
GPGRIPLTSALP | 0.63968 ± 0.00049
GPHAPPPSFPAP | 0.718 ± 0.074
GPPPPPPPASPH | 0.715 ± 0.1
GPPPPSPRPTRR | 0.723 ± 0.031
GPPPRCKYLRAS | 0.6348 ± 0.00079
GPPTKLTLNQQK | 0.6286 ± 0.00082
GPRPATTSPLPT | 0.721 ± 0.2
GPRRLGGTSLGI | 0.651 ± 0.098
GPRRLNAYADPF | 0.722 ± 0.082
